# According to publication PMC6602975:
# Columns and labels:
# [1] = target: Unmodified nucleosome core particle (X. laevis histone octamer on 147 bp Widom-601 DNA) (X. laevis); assay: native gel or EMSA; increasing amounts of Orc1 or Sir3 proteins with 50 or 25 nM nucleosomes; 10 mM Tris pH 7.5, 50 mM NaCl, 2.5% glycerol, 1 mM DTT; room temperature, 30 min; native PAGE 6% (Sir3) or 8% (Orc1), 0.2X TBE; decrease of free nucleosome; apparent KD from a Hill fit
# [2] = target: H4K16ac nucleosome (X. laevis | not stated); assay: as above
substance,measurement,setting,value
Orc1 BAH A2P (from UniProt P54784 1-214) (domain or fragment),fold loss of affinity compared with the WT domain,[1],2 fold
Orc1 BAH E95K (from UniProt P54784 1-214) (domain or fragment),fold loss of affinity,[1],4 fold
Orc1 BAH R202E (from UniProt P54784 1-214) (domain or fragment),fold decrease in affinity compared with the WT domain,[1],4.9 fold
Sir3 BAH D205Q (from UniProt P06701 1-214) (domain or fragment),fold difference in affinity compared with unmodified nucleosome,[2],4 fold
